# B1: Basigin (Homo sapiens), P35613-2 (parent)
# chain: MAAALFVLLGFALLGTHGASGAAGTVFTTVEDLGSKILLTCSLNDSATEVTGHRWLKGGVVLKEDALPGQKTEFKVDSDDQWGEYSCVFLPEPMGTANIQLHGPPRVKAVKSSEHINEGETAMLVCKSESVPPVTDWAWYKITDSEDKALMNGSESRFFVSSSQGRSELHIENLNMEADPGQYRCNGTSSKGSDQAIITLRVRSHLAALWPFLGIVAEVLVLVTIIFIYEKRRKPEDVLDDDDAGSAPLKSSGQHQNDKGKNVRQRNSS
# Variants of: B1
# Conditions: with rh5_plaf7 RH5, Q8IFM5
# rh5_plaf7 RH5, Q8IFM5, sequence (Q8IFM5 whole entry): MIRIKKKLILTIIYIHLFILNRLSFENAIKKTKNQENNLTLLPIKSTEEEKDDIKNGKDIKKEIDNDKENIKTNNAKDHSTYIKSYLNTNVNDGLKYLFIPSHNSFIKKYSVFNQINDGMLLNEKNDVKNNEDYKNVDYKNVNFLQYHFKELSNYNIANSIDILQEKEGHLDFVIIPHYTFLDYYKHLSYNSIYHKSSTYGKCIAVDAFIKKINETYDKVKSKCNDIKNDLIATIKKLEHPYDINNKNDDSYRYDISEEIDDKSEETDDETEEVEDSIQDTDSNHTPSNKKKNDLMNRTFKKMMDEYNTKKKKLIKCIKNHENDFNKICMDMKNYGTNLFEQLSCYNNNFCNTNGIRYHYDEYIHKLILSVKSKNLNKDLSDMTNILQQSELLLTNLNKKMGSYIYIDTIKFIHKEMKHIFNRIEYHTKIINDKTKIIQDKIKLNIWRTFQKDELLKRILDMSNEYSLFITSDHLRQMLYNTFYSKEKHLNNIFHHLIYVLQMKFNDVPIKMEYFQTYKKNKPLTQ
row,Variant,effect of a mutation on the interaction
1,K75E,with no effect
2,Q100K,decreasing interaction strength
3,D32E,with no effect
4,F27L,decreasing interaction strength

# — IntAct's records for PubMed 24297912
